The source of these data is a protein production outcome set (Wang et al. 2014).

This series in a line: label from the status in PepcDB records.

As to “MDIHQELKELSKFLSEYSTSLMAVGVQTSRIVRNTSRIAESFGFFCDMTIFQKTIIMTLRDADNSHSYSTVNKIKPMGLNFAINSALSTLSWEAYDEHLSLSELQRRYHEIVSKPRESKWLVLILVAFANASFCRLFQGDFISMGIVFVATLAGFFVRTELMGRHWNHLAIFIISSFIASMIGSTGYLMHWGDTPDMALGTSVLYLIPGVPLINAIMDIIDGHVLAGTSRFINACLLIICIAIGLSMTLLITGISTL”, the protein production result is recorded as “failed”. On to “MDIIPILLLAAGQSRRMGGADKLMQEIDGMPLLRRTALRAIPVAPVIAALPPAPHPRHGALVGLTLDIVEVPDAAEGMNASLRRAVAALPPEAPAAMILLADLPDLTESDLNTVRRAVDFSQKNLIWRGATEDGQPGHPVVFHRCLFPQLLALRGDQGAQPLVRDHADRVALVPLPGQHARTDLDTPEAWADWRARQQ”, for which the protein production entry is given as “failed”. The same measure for “MDIITKMQVDVPRETVFEAFVDPEKIGGFWFSSSSERWEQGKTITLRYEEYDAELNINIERVEDNQLIAFTWGAHPITIQFEESEAGTVVTTTEKDFDTQDVKQLLGQKEGWVYMLSCLKVYLEHGVTIRAAILLEHHHHHH”: “failed”; for “MDIKVSGRKTTVTDALRAHVDEKIGEALKVFDIEPMTVDVVLRYEKNPSNPNPAIVEVTARARGSVIRVAEHGADMYAAIDLSADKVTRQLRKFKTKVVDNRQGGASAADVAPVERVEDLADLLLPEEDDDLLVREKVIDVTPMTEEQALVQTDLLGHDFYVFENATTGLINVVYHRKNGGYGIIKPRIETLDE”: “failed”. The same measure for “MDINKLKLTPDSSIKEALKIVGQERVRLGIIVDKKDKFLGVISDSNIRKALISGKTLKDSIKDIYTKNPITIKENTSKEQLLKISAKTDIYDFPVLDEKGQILSIKSISSLLKANPNSIIIMAGGLGSRLKELTKDTPKPMLKVGKKPILESIIQRLKNQNFENFIFCVNYKKQIIEDYFQKGQKFGVKISYIKERKKLGTAGALSLIKQEFKESFIVMNADILTELDFNALLKAHKKSKALMSVCVREFEQQIPYGVITQKQGFIENIEEKPTQKFLVSAGIYVLENEILNLIAKNEYLDMPELIKLVLQKGKVNTYIINDYWIDIGRPDEFLKANEDFKLEHHHHHH”: “not failed”; for “MDINMKKHKTIQFIVAALFIASACTDDRDNLMVNDQIGLLHSTYTETEIFRGMDTPYQLFVIKSGKGKQETEVSISVDETVLQSYNTDNGTSIQLLPSDCYTILQPALRLNDSDYRKAFDIKWNADRLSDLLSTGKEYGLPIQMSVVQNFISADDERLKTIIVPTIKEPYLQMDVPGMSPVTDFMPTFGDLNERELFVKIRTNYSNDEDISFQIEVDPQLVIDYNTAHGTAYKMLPESSFTVDNKGVILTGMKETFIKIKYHKKGLIPEEGTYLFGDYVLPLRITSVSKYGISPDAASKLYTVKFQPDPIDKKGWSVIDFNNCCTQDGGWYLNMGWGVESLIDNNPGTQWLCRWDVKEPLPYYFVFDMGKEYTLFRFGFANPVAPAAHVWAGTSKAGYVEASIDNENWVKLKDWTSPKIGEPNVNMDVPATQARYIRFVITDTYPTYDGLRVSLGEVYAWGM”: “failed”. The same measure for “MDIQNMPREQLGVCAEGNLHSVYLMFNANDNVESQLRPCIANVAQYIYELTDQYSDSAFNGFVAIGANYWDSLYPESRPEMLKPFPAMQEGNREAPAIEYDLFVHLRCDRYDILHLVANEISQMFEDLVELVEEERGFRFMDSRDLTGFVDGTENPKGRHRQEVALVGSEDPEFKGGSYIHVQKYAHNLSKWHRLPLKKQEDIIGRTKQDNIEYESEDKPLTSHIKRVNLKDENGKSIEILRQSMPYGSLKEQGLMFISTCRTPDHFEKMLHSMVFGDGAGNHDHLMHFTSALTGSSFFAPSLDFLMQFDN”: “not failed”. Take “MDIQRSILIVALAVVSYLLVLQWNKDYGQPELPAASASMNTTQGLPDTPSASGTSSDVPTAQSSAAGSEAADKPVAVSDKLIQVKTDVLDLAIDPRGGDIVQLGLLQYPRRLDRPDVPFPLFDNGRERTYLAQSGLTGADGPDASSAGRPLFRSAQSSYQLADGQNELVVDLSFSHDGVNYIKRFTFHRGLKADCSDKEKAQKKIECINENAYQVGVSYLIDNQSGKTWSGNLFAQLKRDGSADPSSTTATGVSTYLGAAVWTPDSPYKKISTKDMDKEQFKESVQGGWVAWLQHYFVTAWVPTKGEQHQVMTRKDGQGNYIVGFTGPTLSVPAGSKVETDLTLYAGPKLQKHLKELSPGLELTVDYGFLWFIAQPIFWLLQHIHSLIGNWGWSIIALTVLIKLAFFPLSAASYRSMARMRAVSPKMQAIKEQHGDDRQKMSQAMMELYKKEKINPLGGCLPILVQMPVFLSLYWVLLESVEMRQAPWLGWITDLSVKDPFFILPIVMGGTMLIQQMLNPTPPDPMQAKVMKLMPIIFTFFFLWFPAGLVLYWVVNNCLSIAQQWYITRKIEAAAKTA”: the protein production entry is “failed”. Regarding “MDIRQVTETIAMIEEQNFDIRTITMGISLLDCIDPDINRAAEKIYQKITTKAANLVAVGDEIAAELGIPIVNKRVSVTPISLIGAATDATDYVVLAKALDKAAKEIGVDFIGGFSALVQKGYQKGDEILINSIPRALAETDKVCSSVNIGSTKSGINMTAVADMGRIIKETANLSDMGVAKLVVFANAVEDNPFMAGAFHGVGEADVIINVGVSGPGVVKRALEKVRGQSFDVVAETVKKTAFKITRIGQLVGQMASERLGVEFGIVDLSLAPTPAVGDSVARVLEEMGLETVGTHGTTAALALLNDQVKKGGVMACNQVGGLSGAFIPVSEDEGMIAAVQNGSLNLEKLEAMTAICSVGLDMIAIPEDTPAETIAAMIADEAAIGVINMKTTAVRIIPKGKEGDMIEFGGLLGTAPVMKVNGASSVDFISRGGQIPAPIHSFKN”, the protein production result is on record as “not failed”. The same measure for “MDITMKIAPLLLALGAAGLACCAHAADPKPFTVQQLVKLNKLHSAVVSHDGTKLVYGLKTVNDKGEASSDLYLLDLTQADAKPLQLTSAAGTEHDISFANDDKSIYFLASRSGSSQLFQLPLTGGEAQQVSDLPLDIDGYKLSNDGKQIVLSMRVFPECKDLACSKDKFKAEEERKSTGREYKQLMVRHWDTWEDHARNHLFVGTLNGEKLTKVVDITQGLDTETPPKPFSGMEEVTFTPDGQYVVYSAKAPSKDQAWTTNYDLWQVSVNGGKATNLTADNIAWDAQPTFSSDGRYMAYLAMTKPGFEADRYRIMLRDTSTGQSKEVAPLWDRSPSSLMFAPDNRTLYVTAQDIGQVSIFKVNTQFGDVQSVYSDGSNSLIAIADDQLIFDSKTLVEPGDLYRINTDGQGLKRLTEVNKDKLAEIKFGEFQQFSFKGWNNEDVYGYWIKPANYQEGKKYPIAYLVHGGPQGSFGNGFSGRWNAQLWAGAGYGVVMVDFHGSTGYGQAFTDSISQDWGGKPLEDLQKGLAAVSQQQKWLDPQNACALGGSYGGYMMNWIQGNWNDGFKCLVNHAGLFDMRSMYYVTEEVWFPEHEFGGTYQDNKALYEKFNPVNYVENWKTPMLVIHGEKDFRVPYGQGLAAFSFMQRKGIPSELLIYPDENHWILKPENLEQWYANVFRWMDSWTKK”: “failed”; for “MDIVTLKDFYASVLGKRVQETLCGQLNLCWPDLTGKRVMGFGYALPYLSALRMRAQQCLAFMPAGQGALPWPCADKVATALVFEEDLPLPDASIDCILLIHALEYTENSFETLNEIWRVLVPNGQLIVIVPNRSGLWARNACTPFGYGEPYSRQQIVRLFEKTHFVSGSIQEVVHYMPSSGSVSRFFSFFYEPVARHLLPYFGGLLICQAQKRVYQGLEHHHHHH”: “failed”; for “MDIWNFFTSFIVQSIAFLTHEVGVGEAVAIILFTLIGRLVLMPINLLAMANMYRNKKAISALKPELDKIKVIHKDKPNEIAKSTMALYKKNNIKILDKKSVINIASQGVFGFGMFQALQQIVFNSKFAWIANIAKPDVALALLVGVITYFSMIMMPGSAEQTSTLLFIIPAIICIITLISFPSAIGLYWATSSVTSLLQSLVLNNYFQKQEINKAI”: “failed”.
